The target of assay [1] is FGFRs expressed on NIH3T3 cells. The experiment in a line: cell-based or functional assay.
Assay [2] has the same target. The experiment in a line: equilibrium titration of His-tagged FGF1 on FGFR-expressing NIH3T3 cells at 4 °C, flow cytometry with anti-His antibody. (Flow cytometry measures light scatter and fluorescence of single cells or particles in a stream.)

Data on two substances can be found in patent US20220023385A1.

pKd: −log10 of the molar value.

The pKd is the Kd on a negative log10 scale, so that one unit is a factor of ten. Higher therefore signals a small Kd.

In turn, “FGF1 L131R mutant, recombinant soluble, His-tagged (from UniProt P14210 16-155) (ligand)” returned an inhibition of ERK phosphorylation induced by 1 nM wild type FGF1 in NIH3T3 cells (Western blot against phosphoERK) in assay [1] of 1 nM.

For the substance “recombinant soluble wild-type FGF1 with N-terminal 6x His tag (from UniProt P14210 16-155) (ligand)”, in assay [2], the pKd is 8.00.
